In the nanobody polyreactivity screen of Harvey et al. (2022):

Experiment: yeast display, Sf9 membrane polyspecificity reagent, FACS + sequencing; frameworks hold sequencing errors
Procedure, shortened: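 Nanobodies came from a synthetic yeast display library in Saccharomyces cerevisiae BJ5465, induced with galactose for 36–48 hours and stained for 1 hour at 4 °C with 10% biotinylated, detergent-solubilized Sf9 membrane reagent. Cells were enriched on streptavidin microbeads and then FACS-sorted, with low and high (top ~1%) gates set on anti-HA fluorescence for expression and streptavidin fluorescence for reagent binding. Each polyreactivity label reflects the gate a clone came from. Genes were amplified by colony PCR, sequenced by MiSeq 2 × 250 and filtered by CDR length.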

Sequence	polyreactivity (PSR sort gate)
QVQLVESGGGLVQAGGSLRLSCAASGSIFVGYAMGWYRQAPGKERELVATISSSATSTYYADSVKGRFTISRDNATNTVYLQMNSLKPEDTAVYSCAVERDYGWPIYIRWHFDYWGQGTQVTVAS	low polyreactivity
QVQLVESGGGLVQAGGSLRLSCAASGYIFKYNAMGWYRQAPGKERELVAAISSGGSTYYADSVKGRFTISRDNAKNTVYLQMNSLKPEDTAVYYCAARGVRSARIYYYWGQGTQVTVSS	high polyreactivity
QVQLVESGGGLVQAGGSLRLSCAASGSIFSVNTMGWYRQAPGKERELVAAISESGDGTYYADSVKGRFTISRDNAKNTVYLQMNSLKPEDTAVYYCNADRQKGGGYYPHEFDYWGQGTQVTVSS	low polyreactivity
QVQLVESGGGLVQAGGSLRLSCAASGYTFWDYTMGWYRQAPGKEREFVAAINWSGGSTYYADSVKGRFTISRDNAKKTVYLQMNSLKPEDTAVYYCAARRGGRRGYDYWGQGTQVTVSS	high polyreactivity
QVQLVESGGGLVQAGGSLRLSCAASGRIVRSYTMGWYRLEPGKERELVSDITSGTSTSYADSVKGRFTISRDNAKNTVYLQINSLKPEDTAVYYCNADVSNYFWNWPYQGMDYWGQGTQVTVSS	low polyreactivity
QVQLVESGGGLVQAGGSLRLSCAASGRIFDYAMGWYRQAPGKERELVAAINSAGSTNYADSVKGRFTISRDNAKNTVYLQMNSLKPEDTAVYYCNTDYGSSYNYWGQGTQVTVSS	high polyreactivity
QVQLVESGGGLVQAGGSLRLSCAASGRIFSRYAMGWYRQAPGKERELVAAIASSGTTTYYADSVKGRFTISRDIAKNTVYLQMNSLKAEDTAVYYCATSAVRHIYWGQGTQVTVSS	high polyreactivity
QVQLVESGGRLVQAGGSLRLSCAASGFTFDSYDMGWYRQEPGKERELVAAITWSGGSTYYADSVKGRFTISRDNAKNTVYLQMNSLKPEDTAVYYCNADTGTYWVPWYHDGYDYWGQGTQVTVSS	low polyreactivity
QVQLVESGGGLVQAGGSLRLSCDASGSIFRPNAMGWYRQPPGKERELVAAITWIAGGTYYADSVKGRFTISRDNAKNTVYLQMNSLKPEDTAVYYCAARWYFQTGVGRYYHYDYWGQGTQVTVSS	high polyreactivity
QVQLVESGGGLVQAGGSLRLSCAASGHTFYYKALGWYTQAPGKEREFVATITESGTSTYYADSVKGRCTLSRDNAKNTVYLQMKSLKPEDTAGYYCAAQYWYVGGIALYDYWGQGTQVTVSS	low polyreactivity
QVQLVESGGGLVQAGGSLRLSCAASGIIISYYAMGWYRQAPGTERELVAAINWNGDSTHYADSVKGRFTISRDNAKNTVYLKMNSLKPEDTAVYYCAAGYTPDTRCHYGTHDMDYWGQGTQVTVSS	low polyreactivity
QVQLEESGGGLVQAGGSLRLSCAASGYTFYLYAMAWYRQSPGKERELVAAISTNGGRTYYADSVKGRFTISRDNAKNTVYLQMNSLKPEDTAVYYCAVRSRGTAPQYYYWGQGTQVTVSS	high polyreactivity
QVQLVESGGGLVQAGGSLRLSCAASGRTLGYYAMGWYRQAPGKERELVAAISGSGGITYYADSVKGRFTISRDNAKNTVYLQMNSLKPEDTAVYYCNVDPTAKWFNYDSWGQGTQVTVSS	low polyreactivity
QVQLVESGGGFVQAGGSLRLSCAASGFIFWLNAMGWYRQAPGKERELVAASSIGGRTNYADSVKGRFTISRDNAKNTVYLQMNSLTPEDTAVYFCNNDYRSVYKGRGFDYWGQGTQVTVSS	low polyreactivity
QLQLVESGGGLVQAGGSLRLSCAASGRIFRGYAMGWYRQAPGKERELVAAISGSGGSTYYADSVKGRFTISRDNAKNSVYLQMNSLKPEDTAVYYCAAEGRNYYGSYDYWGQGTQVTVSS	low polyreactivity
QVQLVESGGGLVQAGGSLRLSCAASGRTFISYAMGWYRQAPGKESELVAAISSSGGSTYYADSVKGRFTISRDNAKNTVYLQMNSLKPEDTEVYYCNAAKVRRDPAWRLLDYWGQGTQVTVSS	low polyreactivity
QVQLVESGGGLVQAGGSLRLSCAASGFIFSHNAMGWYRQAPGKERELVAAISDGGGRTYYADSVKGRFTISRDNAKNTVYLQMNSLKPEDTEVYYCAVLWPYYERYYYWGQGTQVTVSS	high polyreactivity
QVQLVESVGGLVQAGGSLRLSCAASGSTFVDYAMGWYRQAPGKERELVAAINSDGGGTYYADSVKGRFTISRDNAKNTVYLQMNSLKPEDTAVYYCNVEYVDYYAQRYGYDYWGQGTQVTLSS	low polyreactivity
QVQLVESGGGLVQAGGSLRLSCAASVSIFARYAMGWYRQAPGKERELVAAITSGTSTNYADSVKGRFTISRDNAKNSVYLQMNSLKPEDTAVYYCNARHTWHQTYDYCGQGTQVTVSS	low polyreactivity
QVQLVESGGGLVQAGGSLRLSCAAYGFIFKFYAMGWYRQAPGKERELVAAITSGGGRTYYADSVKGRFPISRDNAKNTVYLQMNSLKAQDSAGYYCAVDYLQYYYKKHYYGGQGTQVTVSS	high polyreactivity
QVQLVESGGGLVQAGGSLRLSCAASGFIFSPYVMGSYRQAPGKERELVAAISSIGGSTYYADSVKGRFTISRDNAKKTVYLQMNSLKPEDTAVYYCADSVYYYASRYDYWGQGTQVTVSS	low polyreactivity
QVQLVESGGGLVQAGGSLRLSCAASARTFWAYAMGWYRQATGKEREWVAAITSSGTRTYYADSVKGRFTISRDNAKNTVYLKMNSLKPEDTAGYYCAAERIWLAHAYPTYVANDYWGQGTQVTVSS	high polyreactivity

Sequence	polyreactivity (PSR sort gate)
QVQLVESGGGLVQAGGSLRLSCAASGRIFATNAMGWSRPAPGTERELVAGISDGGGSTYYAASVKGRFTISRDNAKNTVYLQMNRLKPEDTEVYYCAARVLDWRGDIHDSEYWGQGTQVTVSS	low polyreactivity
QVQFVESGGGLVQAGGSLRLSCAASGSTFPYYAMGWYRQAPGKERELVAGINWRGSSTYYADSVKGRFTISRDNAKNTVYLQMNSLKPEDTAVYYCAARDYSYPQWYYYWGQGTQVTVSS	high polyreactivity
QVQLVESGGGLVQAGGSLRLSCAASGRTFPYYTMGWYRQAPGKERELVAAISSSGGSTYYADSVKGRFTISRDNAKNTVYLQMNSLKPEDTAVYYCNAGYRWTHFGSWGQGTQVTVSS	low polyreactivity
QVQLVESVGGLVQAGGSLRLSCAASGRTFAYTAMGWYRQARGKDREWLAAITWSGDSTYYADSVKGRFTISRDNAKNTVSLQKNSLKPEDTAVYYCAADYFGGPSYEFVYWGQGTQVTGSS	low polyreactivity
QVQLVESGGGLVQAGGSLRLSCAASGRIFVSNGMGWYRQAPGKESELVAVIRSSTGSTYYADSVKGRFTISRDNAKNTVYLQMNSLKPEDTAVYYCAAPNPFFEPSEYDYWAQGTQVTVSS	low polyreactivity
QVQLVESGGGLVQAGGSLRLSCAASGNTFRIYAMGWYRQAPGKERELVAAISQSGGSTYYADSVKVRFTISRDNAKYTVYLQMNSLKPEDTAVYYCQLIRRGHDYWGQGTQVTVSS	high polyreactivity
QVHLVESGGCLVQAGGSLRLSCAASGFIFPTYAMGWYRQAPGKERELVATITTNAGGTHYADSVKGRFTISRDNAKNTVYLQMNCLKQEDTAVYYCAAKQYRPKQRKYWTRIYDYWGQGTQVTVSS	low polyreactivity
QVQLVESGGGLVQAGGSLRLSCAASGRTLVVYAMGWYRQAPGKERELVADINWSGGRTYYADSVKGRFTISRDNAKNTVYLQMNSLKPEDTAVYYWAADLSWRQYYREYDYWGQGTQVSVSS	high polyreactivity
QVQLVESGGGLVQAGGSLRLSCAASGRIFPRNVMGWYRQAPGKERELVAAISSRGTRTYYADSVKGRFTISRDNAKNTVYLQMYSLKPEDTAVYYCAADGPYEGYDYWGQGTQVTVSS	high polyreactivity
QVQLVESGGGLVQAGGSLRLSCAASGRIFGRYAMGWSRQAPGKERELVASISKRGGSTYYADSVKGRFTISRDNAKNTVYLQMNSLKPEDTAVYYCAALFLSHIYYYWGQGTQVTVSS	high polyreactivity
QVQLVESGGGLVQAGGSLRLSCAASGFIFSSYAMGWYRQAPGKERELVAAISRSGGRTYYADSVKGRFTISRDNAKNTVYLQMNSLKPEDTAVYYCAAKWLGTAGDDYWGQGTQVTVSS	high polyreactivity
QVQLVESGGGLVQAGGSRRLTCAASGSTFTQYPMGWYRQAPGKERELVAGISWGGSSTYYADSVKGRFTISRDNAKNTVYLEMNSLKPEDSEVYYCASAVWREYGYYFVYWDYSWGQGTQGTVSS	low polyreactivity
QVHLVESGGGLVQAGGSLRLSCAATGRTFAGYAMGWYRQAPGKERQLVAAITNGGSTKYADSVKGRFTISRDNAKNSVYLQMNSLKPEDTAVYYCKARKRFYSGNTLMYYWGQGTQVTVSS	high polyreactivity
QVQLVESGGGLVQAGGRLRLTCAASGSIFEGYAMGWYRQAPGKERELGARITSDDDSTYYADSVKGRFTISRDNAKNSVYLQMKSLKPEDTAVYYCNAVYYWTSLAMDSWGQGTQVTVSS	low polyreactivity
QVQLQESGACLVLAGGSLRMSCASSGYIFDTCPMGGYRQAPGKEREFVASIDHGSNTYYADSVKGRFTISRDSAKNTVYLQLNSLKPEDTAVYYCAVRDDGSYTYGNWGQGTQVSVSS	high polyreactivity
QVQLGESGGGLVQAGGSLRLSCAASGSIFAYYAMGWYRQAPGKERELVAGISGSGGSTYYADSVKGRFTISRDNAKNTVYLQMNSLKPEDTAVYYCAVDGRRNGDVRYNYWGQGTQVTVSS	high polyreactivity
QVQLVESGGGLVQAGGSLRLSCAASGRIGRYAMGWYRQAPGKERELVAVITSGDSTYYADSVKGRFTISRDNAKNTVYLQMNSLTPEDTAVYYCAADSYRRWGNLFTGNEYDSWGQGTQVTVSS	low polyreactivity
QVQLVESGGGLVQAGGSLRLTCAASGFIYPYYAMGWYRQATGKERELVATNTRSGGSTYYADSVKGRFTISLDNAKNNVYLQMNSVKQEDSAVYSCAADIYWYRGYGFWGQGTQVTVSS	high polyreactivity
QVQLVESGGGLVQAGGSLRLSCAASGSIFGSYTMGWYRQAPGKERELVAAINASGGRTYYADSVKGRFTISRDNAKNTVYLQMNSLKPEDTAVYYCNKATYYQTYDYWGQGTQVTVSS	high polyreactivity
QVQLEESGGGLVQAGGSLRLSCAASGSIFFGNDMGWYSQAPGKERELVAGISNGGRTNYADSVKGRFTISRDNAKNHVYLLMHSLKPEDTAVYYCAKHPVYIYWSRVLVGYSSWGQGTQGTVSS	low polyreactivity
QVQQQESGGGLVQAGGILRMSCAASGTIFSEANMGSYRQAPGKERELVATIGQGSTTNYADSVKGRFTISRDNAKNTVYLQMNSLKPEETAVYYCAVVNVDPVGFVYWGQGTQVTVSS	low polyreactivity
